Reference: the Human Domainome abundance scans (Beltran et al. 2025)
± gives the uncertainty stated by the source.

B1: Homeobox protein cut-like 1, residues 941 to 1008; numbered along this chain, P39880 (parent)
chain: QEVDTIELTRQVKEKLAKNGICQRIFGEKVLGLSQGSVSDMLSRPKPWSKLTQKGREPFIRMQLWLNG
B2: Protein maelstrom homolog, residues 3 to 71; numbered along this chain, Q96JY0 (parent)
chain: NRKASRNAYYFFVQEKIPELRRRGLPVARVADAIPYCSSDWALLREEEKEKYAEMAREWRAAQGKDPGP

Variants of: B1
Assay: abundance fitness (aPCA) (normalised: wild type 0, dead -1); higher = more abundant; growth selection in yeast, the domain comes from the species named
Settings: Homo sapiens

Abundance fitness of substitutions, site by site:
L66: M -0.244 ± 0.073; T -0.8 ± 0.075; N -0.568 ± 0.11; C -0.499 ± 0.13; V -0.223 ± 0.061; S -0.82 ± 0.072; D -1.21 ± 0.33; K -0.63 ± 0.084; E -0.909 ± 0.15; G -0.884 ± 0.09; P -0.959 ± 0.091; W -0.35 ± 0.068; I -0.166 ± 0.083; Y -0.762 ± 0.091; A -0.62 ± 0.089; Q -1.17 ± 0.15
N67: T -0.041 ± 0.07; G -0.04 ± 0.098; V -0.191 ± 0.1; I -0.326 ± 0.095; H -0.128 ± 0.092; Q -0.088 ± 0.1; Y -0.197 ± 0.085; A -0.03 ± 0.085; P -0.758 ± 0.12; S -0.031 ± 0.061; R -0.016 ± 0.06; E 0.072 ± 0.12; D -0.21 ± 0.11; K 0.045 ± 0.068; L -0.128 ± 0.063; C -0.193 ± 0.092; M -0.186 ± 0.12
G68: A -0.046 ± 0.085; F -0.265 ± 0.19; I -0.662 ± 0.16; S -0.229 ± 0.072; D 0.013 ± 0.095; R -0.14 ± 0.066; V -0.565 ± 0.086; W -0.624 ± 0.091; Q -0.212 ± 0.23; K -0.091 ± 0.11; L -0.343 ± 0.12; P -0.576 ± 0.14; T -0.402 ± 0.15; H -0.455 ± 0.14; C -0.258 ± 0.08

Variants of: B2
Assay: as above
Settings: Homo sapiens

Abundance fitness: each site, then its substitutions
E19: L -0.412 ± 0.067; V -0.25 ± 0.06; D -0.093 ± 0.15; N -0.966 ± 0.47; M -0.303 ± 0.088; C -0.548 ± 0.15; S -0.204 ± 0.053; H -0.54 ± 0.14; R -0.674 ± 0.058; K -0.686 ± 0.11; Q -0.623 ± 0.13; P -0.733 ± 0.14
L20: C -0.611 ± 0.17; P -0.989 ± 0.14; G -0.739 ± 0.068; A -1.1 ± 0.12; D -0.772 ± 0.16; W -0.673 ± 0.12; R -0.959 ± 0.081; K -0.88 ± 0.16; M -0.334 ± 0.15; H -0.953 ± 0.26; Q -0.797 ± 0.12; T -0.62 ± 0.11; I -0.636 ± 0.21; S -0.844 ± 0.11; N -0.642 ± 0.22; V -0.677 ± 0.08
F12: H -0.847 ± 0.26; S -0.7 ± 0.12; E -0.778 ± 0.11; K -0.851 ± 0.11; D -0.403 ± 0.13; N -0.624 ± 0.18; C -0.621 ± 0.12; W -0.404 ± 0.068; P -0.869 ± 0.099; G -0.531 ± 0.064; M -0.53 ± 0.047; L -0.713 ± 0.072; I -0.97 ± 0.23; Y 0.013 ± 0.1; V -0.757 ± 0.077; R -0.797 ± 0.061
A8: V -0.796 ± 0.12; Y -0.696 ± 0.17; S -0.177 ± 0.088; P -0.221 ± 0.083; N -0.429 ± 0.29; G -0.057 ± 0.074; K -0.483 ± 0.096; Q -0.304 ± 0.082; F -0.936 ± 0.46; M -0.357 ± 0.061; C -0.269 ± 0.24; D -0.046 ± 0.1; I -0.27 ± 0.21; T -0.325 ± 0.11; R -0.385 ± 0.072; L -0.783 ± 0.11; E -0.294 ± 0.14; H -0.498 ± 0.21
K3: N -0.001 ± 0.19
E15: H 0.023 ± 0.28; D -0.241 ± 0.23
I17: F -0.323 ± 0.17; G -0.503 ± 0.064; Q -0.961 ± 0.2; R -0.501 ± 0.062; M -0.241 ± 0.075; K -0.687 ± 0.11; Y -0.818 ± 0.21; V -0.166 ± 0.055; C -0.771 ± 0.23; A -0.467 ± 0.084; N -0.797 ± 0.21; P -0.755 ± 0.15; W -0.264 ± 0.07; H -0.832 ± 0.24; L -0.18 ± 0.075
R22: A 0.006 ± 0.063; M -0.261 ± 0.085; G -0.14 ± 0.073; H -0.036 ± 0.15; V -0.738 ± 0.12; D -0.079 ± 0.12; P -0.763 ± 0.13; L -0.11 ± 0.065; Y -0.583 ± 0.2; K 0.162 ± 0.1; C -0.791 ± 0.22; W -0.557 ± 0.09; S -0.046 ± 0.058; T -0.242 ± 0.087; I -0.732 ± 0.23; N -0.154 ± 0.12
P18: Q -0.338 ± 0.094; C -0.358 ± 0.1; H -0.019 ± 0.26; L -0.606 ± 0.1; M -0.263 ± 0.097; F -0.286 ± 0.16; G -0.31 ± 0.067; D -0.313 ± 0.099; E -0.306 ± 0.1; K -0.498 ± 0.11; N -0.532 ± 0.15; A -0.376 ± 0.067; Y -0.673 ± 0.25; I -0.452 ± 0.2; T -0.411 ± 0.074; V -0.268 ± 0.057; S -0.4 ± 0.071; R -0.526 ± 0.057
R21: E -0.496 ± 0.29; L -0.024 ± 0.24; G 0.058 ± 0.47
G24: D -0.311 ± 0.25; A -0.398 ± 0.2
